Test results reported in patent publication US20220098307A1 (WUHAN YZY BIOPHARMA, published 2022).

target: T1, Monkey CD3 (monkey); experiment: flow cytometry, monkey T cells
T1 construct: whole, on cells; also called CD3 of monkey CD3 positive T cells

| EC50 [nM] | Binder |
| --- | --- |
| 10.4 | M1IC-G2 (bispecific antibody, structure 1 isotype control; CH2 G2CH2) not shown heavy: EVKLDETGGGLVQPGRPMKLSCVASGFTFSDYWMNWVRQSPEKGLEWVAQIRNKPYNYETYYSDSVKGRFTISRDDSKSSVYLQMNNLRVEDMGIYYCTGSYYGMDYWGQGTSVTVSSASTKGPSVFPLAPSSKSTSGGTAALGCLVKDYFPEPVTVSWNSGALTSGVHTFPAVLQSSGLYSLSSVVTVPSSSLGTQTYICNVNHKPSNTKVDKKVEPKSCDKTHTCPPCPAPPVAGPSVFLFPPKPKDTLMISRTPEVTCVVVDVSHEDPEVQFNWYVDGVEVHNAKTKPREEQFNSTFRVVSVLTVVHQDWLNGKEYKCKVSNKGLPAPIEKTISKTKGQPREPQVYTLPPCRDELTKNQVSLWCLVKGFYPSDIAVEWESNGQPENNYKTTPPVLDSDGSFFLYSKLTVDKSRWQQGNVFSCSVMHEALHNHYTQKSLSLSPGK light: DVVMTQTPLSLPVSLGDQASISCRSSQSLVHSNGNTYLRWYLQKPGQSPKVLIYKVSNRFSGVPDRFSGSGSGTDFTLKISRVEAEDLGVYFCSQSTHVPWTFGGGTKLEIKRTVAAPSVFIFPPSDEQLKSGTASVVCLLNNFYPREAKVQWKVDNALQSGNSQESVTEQDSKDSTYSLSSTLTLSKADYEKHKVYACEVTHQGLSSPVTKSFNRGEC |
| 14.2 | M1IC-AG2 (bispecific antibody, structure 1 isotype control; CH2 AG2CH2) not shown heavy: EVKLDETGGGLVQPGRPMKLSCVASGFTFSDYWMNWVRQSPEKGLEWVAQIRNKPYNYETYYSDSVKGRFTISRDDSKSSVYLQMNNLRVEDMGIYYCTGSYYGMDYWGQGTSVTVSSASTKGPSVFPLAPSSKSTSGGTAALGCLVKDYFPEPVTVSWNSGALTSGVHTFPAVLQSSGLYSLSSVVTVPSSSLGTQTYICNVNHKPSNTKVDKKVEPKSCDKTHTCPPAPAPPVAGPSVFLFPPKPKDTLMISRTPEVTCVVVDVSHEDPEVQFNWYVDGVEVHNAKTKPREEQFNSTFRVVSVLTVVHQDWLNGKEYKCKVSNKGLPAPIEKTISKTKGQPREPQVYTLPPCRDELTKNQVSLWCLVKGFYPSDIAVEWESNGQPENNYKTTPPVLDSDGSFFLYSKLTVDKSRWQQGNVFSCSVMHEALHNHYTQKSLSLSPGK light: DVVMTQTPLSLPVSLGDQASISCRSSQSLVHSNGNTYLRWYLQKPGQSPKVLIYKVSNRFSGVPDRFSGSGSGTDFTLKISRVEAEDLGVYFCSQSTHVPWTFGGGTKLEIKRTVAAPSVFIFPPSDEQLKSGTASVVCLLNNFYPREAKVQWKVDNALQSGNSQESVTEQDSKDSTYSLSSTLTLSKADYEKHKVYACEVTHQGLSSPVTKSFNRGEC |
| 14.5 | M1IC-DG2 (bispecific antibody, structure 1 isotype control; CH2 DG2CH2) not shown heavy: EVKLDETGGGLVQPGRPMKLSCVASGFTFSDYWMNWVRQSPEKGLEWVAQIRNKPYNYETYYSDSVKGRFTISRDDSKSSVYLQMNNLRVEDMGIYYCTGSYYGMDYWGQGTSVTVSSASTKGPSVFPLAPSSKSTSGGTAALGCLVKDYFPEPVTVSWNSGALTSGVHTFPAVLQSSGLYSLSSVVTVPSSSLGTQTYICNVNHKPSNTKVDKKVEPKSCDKTHTCPPCPAPPVAGPSVFLFPPKPKDTLMISRTPEVTCVVVAVSHEDPEVQFNWYVDGVEVHNAKTKPREEQFNSTFRVVSVLTVVHQDWLNGKEYKCKVSNKGLPAPIEKTISKTKGQPREPQVYTLPPCRDELTKNQVSLWCLVKGFYPSDIAVEWESNGQPENNYKTTPPVLDSDGSFFLYSKLTVDKSRWQQGNVFSCSVMHEALHNHYTQKSLSLSPGK light: DVVMTQTPLSLPVSLGDQASISCRSSQSLVHSNGNTYLRWYLQKPGQSPKVLIYKVSNRFSGVPDRFSGSGSGTDFTLKISRVEAEDLGVYFCSQSTHVPWTFGGGTKLEIKRTVAAPSVFIFPPSDEQLKSGTASVVCLLNNFYPREAKVQWKVDNALQSGNSQESVTEQDSKDSTYSLSSTLTLSKADYEKHKVYACEVTHQGLSSPVTKSFNRGEC |
